Results as given in publication PMC9340783, “Development of a fully human anti‐GITR antibody with potent antitumor activity using H2L2 mice” (FEBS Open Bio, 2022).
Where a chain is given by its changes, count along the chain named. In names and notes the source's numbering stands.

T1: cynoGITR ECD hFc (Macaca fascicularis)
T1 construct: cynomolgus GITR, extracellular domain, Gln20-Glu155, NCBI XP_005545180.1; also called cynoGITR protein; cGITR; source: FreeStyle 293F, transiently transfected, purified by protein A
T1 chain: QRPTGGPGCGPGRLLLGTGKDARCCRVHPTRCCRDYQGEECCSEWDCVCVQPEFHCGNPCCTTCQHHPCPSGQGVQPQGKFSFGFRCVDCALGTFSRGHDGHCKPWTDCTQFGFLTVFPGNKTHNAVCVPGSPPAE

T2: cynoGITR on 293F‐cynoGITR cells (Macaca fascicularis)
T2 construct: also called 293F‐cGITR
T2 chain: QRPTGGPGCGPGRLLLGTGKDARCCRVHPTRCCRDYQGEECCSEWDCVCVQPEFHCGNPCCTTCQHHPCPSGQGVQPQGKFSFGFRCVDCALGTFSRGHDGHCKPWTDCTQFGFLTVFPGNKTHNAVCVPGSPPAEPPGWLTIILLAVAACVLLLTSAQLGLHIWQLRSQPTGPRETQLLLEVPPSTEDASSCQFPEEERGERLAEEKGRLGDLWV

B1: mAb019 (antibody, V domains shown)
VH: QVQLVESGGGVVQPGRSLRLSCAASGFTFSSYGMHWVRQAPGKGLEWVAVIWYAGSRKFYADSVEGRFTISRDNSKNTLYLQMSSVRPEDTAVYYCARGGSLDGGFFYYGMDVWGQGTTVTVSS
VL: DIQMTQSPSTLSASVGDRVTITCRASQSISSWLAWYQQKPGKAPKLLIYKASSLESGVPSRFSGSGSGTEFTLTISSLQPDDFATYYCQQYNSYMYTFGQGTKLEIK
notes: as the VH of m12 (hab019 was made from the variable regions of mAb019); as the VL of m12; Human-murine chimeric antibody from H2L2 mice: human variable regions, rat constant regions; source: hybridoma cell culture supernatant, purified (Protein A)
B2: hab019e3 (antibody, V domains shown)
VH: B1 VH with S84N, V86L, P88A, G104A
VL: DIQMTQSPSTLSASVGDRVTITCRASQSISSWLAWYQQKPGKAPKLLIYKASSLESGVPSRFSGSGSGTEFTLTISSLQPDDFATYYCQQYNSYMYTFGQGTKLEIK
notes: 3503‐hab019‐VH(DA + NLA); positions not given; as the VL of m12 (3503‐hab019‐Vk); Whole antibody, human IgG1 heavy chain constant region, human kappa light chain constant region; source: FreeStyle 293F, transiently co-transfected, purified from culture supernatant
B3: hab019 (antibody, V domains shown)
VH: B1 VH
VL: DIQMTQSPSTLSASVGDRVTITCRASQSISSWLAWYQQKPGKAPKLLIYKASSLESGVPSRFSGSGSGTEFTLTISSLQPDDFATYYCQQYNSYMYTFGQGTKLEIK
notes: 3503‐hab019‐VH; 3503‐hab019‐Vk; Whole antibody, human IgG1 heavy chain constant region, human kappa light chain constant region; source: FreeStyle 293F, transiently co-transfected, purified from culture supernatant
B4: hab019e1 (antibody, V domains shown)
VH: B1 VH with S84N, V86L, P88A
VL: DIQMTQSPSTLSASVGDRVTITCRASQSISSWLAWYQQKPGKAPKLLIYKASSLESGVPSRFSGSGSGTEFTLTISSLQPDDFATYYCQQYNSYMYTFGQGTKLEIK
notes: 3503‐hab019‐VH(DG + NLA); positions not given; as the VL of m12 (3503‐hab019‐Vk); Whole antibody, human IgG1 heavy chain constant region, human kappa light chain constant region; source: FreeStyle 293F, transiently co-transfected, purified from culture supernatant
B5: mAb070 (antibody, V domains shown)
VH: QVQLVESGGGVVQPGRSLRLSCAASGFTFSSYGMHWVRQAPGKGLEWVAVIWYETSNKFYVDSVKGRFTISRDNSKNTLYLQMNSLRAEDTAVYYCARYGASSGWYWYFDLWGRGTLVTVSS
VL: DIQLTQSPSFLSASVGDRVTITCRASQGISSFLAWYQQKPGKAPKLLIYAASTLQSGVPSRFSGSGSGTEFTLTISSLQPEDFATYCCQQLNSYPFTFGQGTKLEIK
notes: as the VH of m14; as the VL of m14; Human-murine chimeric antibody from H2L2 mice: human variable regions, rat constant regions; source: hybridoma cell culture supernatant, purified (Protein A)
B6: hab076 (antibody, V domains shown)
VH: B5 VH with F59Y, V61A
VL: B5 VL with F32Y
notes: 3503‐hab076‐VH; 3503‐hab076‐Vk; Whole antibody, human IgG1 heavy chain constant region, human kappa light chain constant region; source: FreeStyle 293F, transiently co-transfected, purified from culture supernatant
B7: mAb076 (antibody, V domains shown)
VH: B5 VH with F59Y, V61A
VL: B5 VL with F32Y
notes: as the VH of m15; as the VL of m15; Human-murine chimeric antibody from H2L2 mice: human variable regions, rat constant regions; source: hybridoma cell culture supernatant, purified (Protein A)
B8: hab076e1 (antibody, V domains shown)
VH: B5 VH with F59Y, V61A
VL: B5 VL with F32Y, C87Y
notes: as the VH of m15 (3503‐hab076‐VH); 3503‐hab076‐Vk(C2Y); the substitution is against the VL of m15 (Cys in FR3 of VL); position not given; Whole antibody, human IgG1 heavy chain constant region, human kappa light chain constant region; source: FreeStyle 293F, transiently co-transfected, purified from culture supernatant
B9: mAb064 (antibody, V domains shown)
VH: B5 VH with F59Y, V61A, S85N, A101G, S102N
VL: B5 VL with K42T
notes: as the VH of m13; as the VL of m13; Human-murine chimeric antibody from H2L2 mice: human variable regions, rat constant regions; source: hybridoma cell culture supernatant, purified (Protein A)
B10: hab070 (antibody, V domains shown)
VH: B5 VH
VL: B5 VL
notes: 3503‐hab070‐VH; 3503‐hab070‐Vk; Whole antibody, human IgG1 heavy chain constant region, human kappa light chain constant region; source: FreeStyle 293F, transiently co-transfected, purified from culture supernatant
B11: hab064 (antibody, V domains shown)
VH: B5 VH with F59Y, V61A, S85N, A101G, S102N
VL: B5 VL with K42T
notes: 3503‐hab064‐VH; 3503‐hab064‐Vk; Whole antibody, human IgG1 heavy chain constant region, human kappa light chain constant region; source: FreeStyle 293F, transiently co-transfected, purified from culture supernatant
B12: hab064e1 (antibody, V domains shown)
VH: B5 VH with F59Y, V61A, A101G, S102N
VL: B5 VL with C87Y
notes: 3503‐hab064‐VH(N2S); the substitution is against the VH of m13; position not given; 3503‐hab064‐Vk(T2K/C2Y); the substitutions are against the VL of m13; positions not given; Whole antibody, human IgG1 heavy chain constant region, human kappa light chain constant region; source: FreeStyle 293F, transiently co-transfected, purified from culture supernatant

Target: T3, hGITR ECD hFc (Homo sapiens (Human)., UniProt Q9Y5U5, Thr45Ala)
T3 construct: human GITR (glucocorticoid-induced TNF receptor-related), extracellular domain, Gln26-Glu161 with Thr45Ala, UniProt Q9Y5U5.1; also called human GITR protein; source: FreeStyle 293F, transiently transfected, purified by protein A
Assay: ELISA; indirect ELISA; antigen hFc fusion protein coated on 96-well plates (1 μg·mL^−1 overnight at 4 °C in Fig. 3B), antibody added, detected with anti-rat IgG/hIgG-peroxidase antibody
Settings: both partners purified

EC50 [nM]	Binder
0.008	B1
0.098	B2
0.103	B3
0.082	B4
0.022	B5
0.091	B6
0.01	B7
0.087	B8
0.038	B9
0.099	B10
0.106	B11
0.093	B12

Target: T1, cynoGITR ECD hFc
Assay: as above
Settings: both partners purified

EC50 [nM]	Binder
0.007	B1
0.089	B2
0.092	B3
0.079	B4
0.025	B5
0.101	B6
0.012	B7
0.094	B8
0.035	B9
0.106	B10
0.108	B11
0.096	B12

Target: T4, human GITR on 293F‐hGITR cells (Homo sapiens (Human)., UniProt Q9Y5U5-1)
T4 construct: Also used as the target of the functional rows (Jurkat‐hGITR‐NF‐ĸB‐Luc cells made with the same lentiviral construct; endogenous GITR on human T cells)
Assay: flow cytometry on cells; 293F‐hGITR or 293F‐cynoGITR cells incubated with antibodies at 4 °C for 1 h, fluorescent anti-rat/human secondary antibody; EC50 of MFI curve
Settings: one partner purified

T4 sequence (Q9Y5U5 26-241): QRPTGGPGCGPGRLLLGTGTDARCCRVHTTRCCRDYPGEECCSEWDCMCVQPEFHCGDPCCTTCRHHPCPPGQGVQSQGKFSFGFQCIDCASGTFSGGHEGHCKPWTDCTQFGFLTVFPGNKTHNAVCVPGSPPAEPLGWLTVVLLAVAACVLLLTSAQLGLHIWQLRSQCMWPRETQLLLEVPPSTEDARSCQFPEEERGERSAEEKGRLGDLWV

EC50 [nM]	Binder
0.163	B1
0.215	B2
0.244	B3
0.181	B4
0.358	B5
0.179	B6
0.152	B7
0.195	B8
0.385	B9
0.19	B10
0.165	B11
0.235	B12

Target: T2, cynoGITR on 293F‐cynoGITR cells
Assay: as above
Settings: one partner purified

EC50 [nM]	Binder
0.011	B1
0.277	B2
0.304	B3
0.287	B4
0.198	B5
0.418	B6
0.226	B7
0.26	B8
0.404	B9
0.19	B10
0.22	B11
0.313	B12

Target: T4, human GITR on 293F‐hGITR cells
Assay: cell-based or functional assay
Settings: not given

NF‐ĸB luciferase reporter assay, Crosslinking, EC50 [nM]	NF‐ĸB luciferase reporter assay, Crosslinking, Top ratio [fold]	NF‐ĸB luciferase reporter assay, No crosslinking, Top ratio [fold]	NF‐ĸB luciferase reporter assay, No crosslinking, EC50 [nM]	Binder
12.5	11	20	–	B1
8.75	14	9	0.269	B2
8.66	13	10	0.265	B3
9.46	12	8	0.26	B4
> 0.09	7	10	0.062	B5
6.07	20	9	0.157	B6
> 0.27	8	14	> 0.09	B7
5.16	13	8	0.264	B8
0.101	7	10	> 0.2	B9
7.32	16	9	0.111	B10
7.13	12	10	0.177	B11
9.26	12	11	0.264	B12

Target: T3, hGITR ECD hFc
Assay: SPR; Biacore T200; hGITR ECD hFc immobilised on a Series S CM5 chip; antibody 0, 3.125, 6.25, 12.5, 25 and 50 nM; association 180 s, dissociation 600 s
Settings: both partners purified

Kd [nM]	Binder
0.401	B3
1.03	B6
0.251	B10
0.592	B11
